Test results as given in the supplement of paper PMC12042874.
± gives the uncertainty stated by the source.

Assay: amyloid nucleation score (Sup35N fusion, yeast selection) (log enrichment); library NNK1; higher = more nucleation; inactive = no reads after selection
Outline: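 For the nucleation score, DiMSum gave the log enrichment of output over input reads, centred on the mode score of non-aggregating sequences. Psi-negative yeast expressing Sup35N fused to peptides of 20 random codons were induced with 100 μM copper sulfate for 24 hours and grown 7 days at 30°C on medium lacking adenine and uracil. Input and output plasmid inserts were Illumina-sequenced, and sequences with under 100 input reads were excluded.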

Substance	amyloid nucleation score
VGVRRDTCSPRQVLGHTS	0.301 ± 0.52
SSCKCRCGFD	-0.699 ± 0.67
WLEYYYCMLHDELIS	0.109 ± 0.29
RVVLCDI	0.261 ± 0.75
YKLPAAIDRMIVVQCNRPSI	-0.246 ± 0.61
TVQWAEN	0.292 ± 0.63
VSPGVFMGVLLMALKFFQAK	-0.303 ± 0.71
WSRSLVLGPLEMAHTKAVQN	-0.658 ± 1.4
VYYLIVHLHSGMLHQIVELS	0.707 ± 0.51
VLKGNKRRVLNAWVAYVLRS	0.273 ± 0.35
CFKFARGGVLI	1.32 ± 0.66
YSRGGFGHWFQHSL	-0.482 ± 1.7
WVSMKVVGVKHSGLDWRIL	0.012 ± 0.52
RRDDVCELLVIP	0.351 ± 0.51
AYVDAL	1.53 ± 0.48
RSEVEFNTPHLLKCVPDMSF	0.587 ± 0.42
KLGCYTL	0.367 ± 0.81
NRRCGGASSIRTGNRIWDDW	2.22 ± 0.23
YATTD	-0.776 ± 0.58
NRSLKCICRRSVGRRSQNLR	0.57 ± 0.5
VMSGRCFTRCAFGLQRVPSV	0.033 ± 0.63
SGPFSTYMTRFFLDFGSVDC	-1.71 ± 2.4
ASKKGPWFYSAVSYGLA	-0.128 ± 0.34
YMILLSLGVFFTPVPDYFAQ	-0.385 ± 0.68
RNPTFFAMCSMCWLSTT	0.852 ± 0.97

Substance	amyloid nucleation score
STRSLSCLFLNRTSHCLGTL	-0.721 ± 1.4
PRVIELARLVRLRKTKVYML	-0.013 ± 0.24
CLYVAESSTTMNLWDHSVLP	-0.575 ± 0.41
NMYKSMNQSTE	-0.705 ± 0.26
MVRWLNTSRKFT	1.06 ± 0.73
FSLFDGMVLVNS	-0.281 ± 0.39
YFLSHRCTGGLPIS	-0.028 ± 0.9
QQSQC	inactive
YEKSFGTYTM	-0.045 ± 0.28
TKSTYSSTVTKRTSASCVTL	0.215 ± 1.1
KHAYFSLIRVSNWKWNSVRV	-0.027 ± 0.56
KSFSIYTVIVV	1.2 ± 0.26
DLAFRPVLVLQ	0.762 ± 0.65
LCGDAPREDYSHGYVLNQVG	0.352 ± 0.78
EPCVGNSNSCCVHC	-0.072 ± 0.53
KQNSKLFLIFIGNALGQVTV	5.09 ± 0.064
TWSACICKRMVLPCDFQNGS	0.808 ± 0.9
SFARVWVWSACA	-0.559 ± 0.49
QYFPF	-1.26 ± 1.2
LAITDKCSRALSLLSCPDF	0.265 ± 0.63
HLTKRGLSQTKRSAALQRVG	0.514 ± 1.2
DFHDLSNLVTGGLLITHIL	1.01 ± 0.58
RVVPGGRLRYVNMVF	1.26 ± 0.67
PVCFAFQFRATPNMQVHQPS	-0.108 ± 0.75
DLDKRMVSYDFKICGYKINF	3.77 ± 0.1

Substance	amyloid nucleation score
MDWYIVYRPAYTLLCRIHVR	1.16 ± 0.39
YLASFMNLAISVGLVDGLCG	-1.29 ± 1.7
WVPMDVF	1.61 ± 0.35
GKPLTTVVAIIF	3.56 ± 0.11
KGQSRHVSECVGWVSNVASL	0.461 ± 0.73
SSMLSISVFEWITFRWR	0.181 ± 0.58
LLAGYCQSYIQLELSNSEHV	-0.241 ± 0.84
LKARQHFRNHHGMLVQKRWD	inactive
AGKCIVQYKGLKNVR	0.91 ± 0.75
KSQTRDIFRGDVMC	-0.991 ± 0.71
DCKLGISGIDLVNRFLYPCM	1.33 ± 0.84
TLCQCKLT	-0.286 ± 0.67
CTRVTSRAM	-0.757 ± 0.9
MLSYVRIGSDQDVVWSDLQR	2 ± 0.1
PVLPDDLNARREYSGCIKYL	0.765 ± 0.55
GFECSCKYHDFTGSALCNTL	0.613 ± 0.36
FFPTEYHALENLLHADVRVK	-0.682 ± 0.36
AYNLLYN	1.59 ± 0.69
NVIVKDLVLDNTFCVARVQA	-0.639 ± 0.42
RHFLFLLWARPTTCSIFMVG	-0.454 ± 0.77
WYRYEPLVMTRQMSGVGPMR	0.124 ± 0.33
NDHDGEFDD	0.239 ± 0.57
SILVRVSVR	0.444 ± 1.2
MFGAHLA	inactive
ACWYLKRFLIMGKLSWS	-0.15 ± 0.3

Substance	amyloid nucleation score
GCSVWDCWGLRVRSVGRSDR	0.449 ± 0.34
CWDLTTVCHNFNRYHSWVSR	0.431 ± 1.1
NTGIS	-1.22 ± 1.4
DRFSYLEHDSRDRRRVE	inactive
NFFVDDSDRGQYKFDPFCCG	inactive
VNRYEVPLLGRRHDCEFSRT	-0.806 ± 1.1
YSLVICNQNSFPNMVDIVLG	2.53 ± 0.074
SNLWFL	-0.213 ± 0.28
KRNRVAIILWICNNYYEWNN	-0.747 ± 0.39
LINMYSMDMTTDHAPAYKLD	-0.302 ± 0.47
CLFFNYRVIEFNTPGVNMFW	0.739 ± 0.33
WSSTTNWMLRPFKCANRLGW	-0.529 ± 1.3
TSVDG	0.162 ± 0.28
KVLFLTCYTTPSLNNLVFRC	-0.069 ± 0.28
PYVGHVGVKRDSNCK	0.206 ± 1.1
SSVILSDCSCFMVHQCWYLC	-2.13 ± 2.7
KFVWVIAVDVDSRCKFCCGS	0.354 ± 0.82
LCLFGSWLKKLKYNRFLFVG	-1.18 ± 1.7
SVPMMSML	0.019 ± 0.25
IGGHRYGVDKY	-0.194 ± 0.72
LDAKVFRVALAYYLPPGP	0.789 ± 0.53
MFFGWLFHYLLSSTYMFVSL	-0.266 ± 0.72
RCGRSVVDGLRCFRLRMAFG	-1.06 ± 1.2
SPVESQNSNNRLTIMDLIMR	0.574 ± 0.97
VVCVLRVVDVMFASRS	0.694 ± 1.2

Substance	amyloid nucleation score
LARCRWLVKRVCDGNWCCML	0.569 ± 0.48
WIRDDVVMGGAECCLVLNQ	1.24 ± 0.58
VRFTTIVYPSWFFSAW	0.565 ± 0.45
LEMDRICMMLSDSRFKLTLV	-0.025 ± 0.21
SLNKRWCLRTQFGVAMVRTP	0.416 ± 0.99
YKSVLHSSRSGGAYGVVKSL	-0.038 ± 0.45
MMGLY	-0.038 ± 0.32
HTFSRRTGAGGSAKLT	0.972 ± 0.6
DRWWILNGTTDLSLGWVLEC	0.648 ± 0.97
TTINIRYPIYSVVMCWYRLE	5.513 ± 0.045
INLTNIHFCHVNFVVGALKP	5.98 ± 0.079
HSLGLANYFTSHEGLVGTF	inactive
LVEVNWI	-0.412 ± 0.47
YLFHMKARCMLFHKLLTYSR	inactive
LFIVTFSYFLSPRLVQWYAL	0.516 ± 0.67
EILFFEFFKNEFLYCHKMLC	0.902 ± 0.4
SNAPFRKAQQRGLYKWWSWR	0.728 ± 0.54
TSSVYLWVSQCYGMNSLLNL	-0.118 ± 0.75
FNDFSLSYARFCINSMNRYP	0.968 ± 0.13
RSFVSEGYFGCWDRDTDYTD	-0.894 ± 1.2
PFVYLVYCGNGNVFAAKYLS	6.217 ± 0.059
DTLPRFRSRNSIVRNLSKNG	inactive
IRGLLRFL	0.007 ± 0.35
VGELYFIVWMDLLLVGWDGR	0.897 ± 0.53
NVQVKWGQTRVTCWDYGGEH	0.467 ± 0.34

Substance	amyloid nucleation score
LAYVHTVKVDGPWKHMNVWY	1.22 ± 0.54
CKKSCGSVRSNASLTKDWSN	-0.097 ± 0.28
WRMVAIWKNLD	-0.013 ± 0.56
SVDNMVGVTGSFGGARVILS	-0.237 ± 0.39
LWTFGDRSVWLDDSMRWVPR	-0.145 ± 1.1
WETGIRMFVKCRR	0.906 ± 0.33
KLMSEFTKFVFSLLSSNKSH	-0.457 ± 0.31
VCSKGACSLGDVNCDSTDVG	0.104 ± 0.63
IFRMAPKQCPSLWVASPHWI	0.743 ± 0.55
APSSKF	0.062 ± 1.1
SWVWCYWILSWIREFLLRQG	0.447 ± 0.42
VQIDK	0.514 ± 0.33
IVEGVPGTRPHVLAKCSDEC	0.232 ± 0.3
EFRMFTLKLR	1.13 ± 0.65
EFIIAWVWRLHNWVSGFRHS	0.343 ± 0.35
TSRALRREIARLKAYGSMMV	inactive
AISDFMGHS	-0.825 ± 1.1
LDGFSVNLCWFRHTERCVAC	-0.224 ± 0.78
DGCIKLWGF	0.779 ± 0.67
LYYDSRASFPCISLEIERYV	-0.083 ± 0.33
YNISDSTSPMVASRMGRLGQ	0.364 ± 0.45
KTLDLHISFPQDKLFR	-0.382 ± 0.45
EKRLYGYLKDHLE	-0.605 ± 0.35
CVTDIRAWFKVGLCNSDVLQ	3.89 ± 0.096
IGYSGYY	-0.296 ± 0.41

Substance	amyloid nucleation score
FNSRGSVSNL	0.821 ± 1.1
IRLTILLSKVDTDE	0.885 ± 0.42
AARRLNELSSELKWMCSATD	-0.077 ± 0.4
LTFNPLTGCNNSQWFDGISG	-1.23 ± 2.1
NCYGYVEKWWGVCTNDPLGR	-0.133 ± 0.25
FHMENALISLGCSSGLRQMA	0.803 ± 0.54
YVCPRSWVVRVRHQKTFQSY	-0.374 ± 0.81
MNALGSTYWDQQSAQQSMWS	4.92 ± 0.068
CGFEVFVRIV	0.431 ± 0.7
HIVVFKYVCYSHEAVYWRPE	0.305 ± 1.2
LLYLCYIRCI	0.952 ± 0.65
IGGFASLGYGYIRDVIRVTS	0.493 ± 0.45
GVGRRMSMWYVCDAGWEAWR	3.16 ± 0.094
VCLSC	2.03 ± 0.41
HTKTLAFHIILTIILRCMFL	0.713 ± 0.34
YAVRYFETVVLQGIEVIPES	0.205 ± 0.6
FLMWMWLVSNRKHWLFTDKV	-2.54 ± 2.7
GGFWPICYWNLRASEPLQDS	0.173 ± 0.63
VSRWSGEEPISCSYGTLR	-0.164 ± 0.6
NINFGVVSYSVYMLL	6.649 ± 0.054
ASLVDVGSP	0.215 ± 0.32
EVFRRSLGTTDAVGPKHDAQ	2.39 ± 0.17
KETLGIQ	1.19 ± 0.52
